{"source": "paper doi:10.1101/2022.02.09.479832v2", "about": "(biorxiv, 2022)", "molecules": {"B1": {"name": "PmIleRS2 (Priestia megaterium NBRC 15308 = ATCC 14581) (protein)", "chain": "MKEVNVRESSQEREQRIQQQWQKGNVFQQSVQNREGYPSFVFYEGPPTANGLPHVGHALGRTIKDVVARYKTMTGHQVIRKAGWDTHGLPVELGVEKQLGISGKHDIEKYGVEAFINKCKESVFVYEKQWRTFTEQLGYWVDMEDPYITLENSYIESVWNVLGTIHDKGLLYKGHRVSPYCPSCQTSLSSHEVAQGYKDVKDLTVTVKFKVKNRDNEYFLGWTTTPWTLPSNVALAVHEEMSYVRAEQGDSVYIVAEALADKVLKGEYSVLSHHKGNELKGMSYEPPFNFVKVEKGHEVVTADYVTDQSGTGVVHLAPAYGEDDYRVVKENGFSFVNVVDEKGQYTSEVPPFQGRFVKDCDVDIVRYLANQDVLYHKEKHEHSYPFCWRCDSPLLYYANESWFIQTTALKEQFLKNNESVKWYPDHIKHGRFGKFLENMVDWNISRKRYWGTPLNVWECEGCQHQVAPKSIKELQKHASHYVDDSIELHKPYVDDVQLTCPVCSGEMKRTPEVIDVWFDSGSMPFAQYHYPFENSELFQKQFPADVIAEGIDQTRGWFYSLMAVSTLFTGKAPYKRVLSLGHVLDENGQKMSKSKGNALDPVDLIHTFGADALRWALLADSAPWNPKKFSERVVQEAKSKVIDTLVNVYGFYVLYAKLDGYDPEQTYELKKTKLDEWILSRLHSTVKRATVHLEDYGFTSAAREIAVFIEELSNWYVRRSRDRFWSEGMDGEKAAAYDTLHEVLVTLSQLLAPFTPFVADDVHENLTGKSVHLADYPACDQTKVNEKLEKEMAAVLQVVELGRSIRNTHSLKVKQPLQSLSLVVTEEDVEWKAYRDVIKDELNVKNFNVEQDDDKLVSYVLKLDFKQAGPKFGKQVNEVNQALKNLSEEKGKEFVEQGKLSVTLASGENLTLETEDVLVEKVPKEGFAVASNGMYTAVLDTALTEELVQEGVAREVIRAVQDYRKKLDLPVNSRINLELSGDEEVQKAVAKFETLLQENLLLHSLSVKETIKNGETVKVGTKQVVLRVLNQS"}}, "key": {"[1]": {"molecular_target": "T1, PmIleRS2 (Priestia megaterium, UniProt A0A0B6AVD3)", "T1 sequence (A0A0B6AVD3 1-1032)": "B1 chain", "experiment": "biochemical"}, "[2]": {"molecular_target": "T2, PmIleRS1 (Priestia megaterium, UniProt A0A0B6A6A8)", "T2 sequence (A0A0B6A6A8 1-921)": "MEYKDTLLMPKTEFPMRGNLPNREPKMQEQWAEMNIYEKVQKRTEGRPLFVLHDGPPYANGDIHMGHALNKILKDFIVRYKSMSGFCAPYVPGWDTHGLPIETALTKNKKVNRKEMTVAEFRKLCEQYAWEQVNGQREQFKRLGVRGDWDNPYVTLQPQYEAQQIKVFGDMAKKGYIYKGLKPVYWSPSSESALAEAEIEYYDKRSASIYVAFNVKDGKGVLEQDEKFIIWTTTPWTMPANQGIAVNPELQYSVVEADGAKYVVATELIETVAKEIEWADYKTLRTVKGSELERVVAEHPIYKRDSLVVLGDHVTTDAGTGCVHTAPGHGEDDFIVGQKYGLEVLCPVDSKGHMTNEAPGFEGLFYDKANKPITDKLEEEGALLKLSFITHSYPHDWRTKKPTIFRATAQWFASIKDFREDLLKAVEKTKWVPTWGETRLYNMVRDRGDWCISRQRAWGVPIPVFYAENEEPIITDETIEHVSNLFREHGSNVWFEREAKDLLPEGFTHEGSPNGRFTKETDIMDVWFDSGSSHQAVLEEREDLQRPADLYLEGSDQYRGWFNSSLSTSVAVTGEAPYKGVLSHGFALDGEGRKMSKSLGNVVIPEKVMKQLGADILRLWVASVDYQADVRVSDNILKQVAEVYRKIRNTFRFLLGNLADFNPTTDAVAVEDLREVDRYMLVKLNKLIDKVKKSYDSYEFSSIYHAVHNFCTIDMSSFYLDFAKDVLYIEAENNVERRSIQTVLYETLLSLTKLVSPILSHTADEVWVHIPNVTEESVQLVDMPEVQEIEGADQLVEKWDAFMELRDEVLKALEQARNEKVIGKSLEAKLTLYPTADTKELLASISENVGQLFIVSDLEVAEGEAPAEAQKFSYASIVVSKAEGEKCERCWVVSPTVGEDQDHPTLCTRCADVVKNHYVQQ", "experiment": "time courses fitted to slow-binding equation, Ki = koff/kon", "assay_type": "biochemical", "settings": "competitive, tight binding, 30 °C"}, "[3]": {"molecular_target": "T2, PmIleRS1", "experiment": "biochemical", "settings": "read-out: kon"}, "[4]": {"molecular_target": "T1, PmIleRS2", "experiment": "biochemical", "remark": "listed apart in the source"}, "[5]": {"molecular_target": "T2, PmIleRS1", "experiment": "biochemical", "settings": "read-out: koff"}, "[6]": {"substrate": "CC[C@@H](C)[C@@H](N)C(=O)O", "experiment": "purified protein, by the assay type", "settings": "30.0 °C"}, "[7]": {"substrate": "CCC[C@H](N)C(=O)O", "experiment": "purified protein, by the assay type", "settings": "30.0 °C"}, "[8]": {"substrate": "Nc1ncnc2c1ncn2[C@@H]1O[C@H](COP(=O)(O)OP(=O)(O)OP(=O)(O)O)[C@@H](O)[C@H]1O", "experiment": "purified protein, by the assay type", "settings": "30.0 °C"}, "[9]": {"substrate": "CC(C)[C@H](N)C(=O)O", "experiment": "purified protein, by the assay type", "settings": "30.0 °C"}, "[10]": {"substrate": "CC[C@H](C)[C@H](N)C(=O)O", "experiment": "purified protein, by the assay type", "settings": "30.0 °C"}, "[11]": {"substrate": "CC[C@H](C)[C@H](N)C(=O)O", "experiment": "purified protein, by the assay type"}, "[12]": {"substrate": "Nc1ncnc2c1ncn2[C@@H]1O[C@H](COP(=O)(O)OP(=O)(O)OP(=O)(O)O)[C@@H](O)[C@H]1O", "experiment": "purified protein, by the assay type"}}, "note": "Like-named read-outs stand apart in the source and are kept apart here."}
{"molecule": "C/C(=C\\C(=O)OCCCCCCCCC(=O)O)C[C@@H]1OC[C@H](C[C@@H]2O[C@H]2[C@@H](C)[C@H](C)O)[C@@H](O)[C@H]1O", "note": "[mupirocin]", "values": [{"measurement": "Ki", "setting": "[1]", "value": "1.08 ± 0.06", "unit": "µM"}, {"measurement": "Ki", "setting": "[2]", "value": "0.000285 ± 0.000146", "unit": "µM"}, {"measurement": "kon", "setting": "[3]", "value": "1.51e+06", "unit": "M⁻¹ s⁻¹"}, {"measurement": "Ki", "setting": "[4]", "value": "1.04 ± 0.04", "unit": "µM"}, {"measurement": "koff", "setting": "[5]", "value": 0.00043, "unit": "s⁻¹"}]}
{"molecule": "B1", "values": [{"measurement": "Km", "setting": "[6]", "value": "(2.3 ± 0.1) × 10^3 uM"}, {"measurement": "kcat", "setting": "[6]", "value": "1.54 ± 0.03", "unit": "s⁻¹"}, {"measurement": "kcat/Km", "setting": "[6]", "value": 670, "unit": "M⁻¹ s⁻¹"}, {"measurement": "Km", "setting": "[7]", "value": "(7.97 ± 0.84) × 10^3 uM"}, {"measurement": "kcat", "setting": "[7]", "value": "33 ± 1", "unit": "s⁻¹"}, {"measurement": "kcat/Km", "setting": "[7]", "value": 4100, "unit": "M⁻¹ s⁻¹"}, {"measurement": "Km", "setting": "[8]", "value": "(1.6 ± 0.1) × 10^3 uM"}, {"measurement": "kcat/Km", "setting": "[8]", "value": 40000, "unit": "M⁻¹ s⁻¹"}, {"measurement": "Km", "setting": "[9]", "value": "(5.4 ± 0.4) × 10^3 uM"}, {"measurement": "kcat", "setting": "[9]", "value": "39 ± 1", "unit": "s⁻¹"}, {"measurement": "kcat/Km", "setting": "[9]", "value": 7000, "unit": "M⁻¹ s⁻¹"}, {"measurement": "Km", "setting": "[10]", "value": "48.6 ± 1.9", "unit": "µM"}, {"measurement": "kcat/Km", "setting": "[10]", "value": "1.4e+06", "unit": "M⁻¹ s⁻¹"}, {"measurement": "Km", "setting": "[11]", "value": "6.2 ± 0.8", "unit": "µM"}, {"measurement": "kcat/Km", "setting": "[11]", "value": 150000, "unit": "M⁻¹ s⁻¹"}, {"measurement": "Km", "setting": "[11]; 30.0 °C", "value": "69.3 ± 5.5", "unit": "µM"}, {"measurement": "kcat/Km", "setting": "[11]; 30.0 °C", "value": 940000, "unit": "M⁻¹ s⁻¹"}, {"measurement": "Km", "setting": "[12]", "value": "76.4 ± 1.4", "unit": "µM"}, {"measurement": "kcat", "setting": "[12]", "value": "0.96 ± 0.03", "unit": "s⁻¹"}, {"measurement": "kcat/Km", "setting": "[12]", "value": 10000, "unit": "M⁻¹ s⁻¹"}, {"measurement": "Km", "setting": "[12]; 30.0 °C", "value": "(3.8 ± 0.2) × 10^3 uM"}, {"measurement": "kcat/Km", "setting": "[12]; 30.0 °C", "value": 20000, "unit": "M⁻¹ s⁻¹"}]}
